From patent US20210206877

Target: certain anti-BACE1 antibodies (tested in the FRET short substrate assay)

B1: BACE1 ECD (as used in the enzyme activity assay) (protein)
chain: TQHGIRLPLRSGLGGAPLGLRLPRETDEEPEEPGRRGSFVEMVDNLRGKSGQGYYVEMTVGSPPQTLNILVDTGSSNFAVGAAPHPFLHRYYQRQLSSTYRDLRKGVYVPYTQGKWEGELGTDLVSIPHGPNVTVRANIAAITESDKFFINGSNWEGILGLAYAEIARPDDSLEPFFDSLVKQTHVPNLFSLQLCGAGFPLNQSEVLASVGGSMIIGGIDHSLYTGSLWYTPIRREWYYEVIIVRVEINGQDLKMDCKEYNYDKSIVDSGTTNLRLPKKVFEAAVKSIKAASSTEKFPDGFWLGEQLVCWQAGTTPWNIFPVISLYLMGEVTNQSFRITILPQQYLRPVEDVATSQDDCYKFAISQSSTGTVMGAVIMEGFYVVFDRARKRIGFAVSACHVHDEFRTAAVEGPFVTLDMEDCGYNIPQTDESTLMT
- Modulation of BACE1 activity (cleavage of FRET short substrate Mca-SEVNLDAEFRK(Dnp)RR-NH2): both enzyme inhibition (positive percentages), and enzyme activation (negative values) were observed
